Source: paper PMC3958483, “Fine Specificity and Molecular Competition in SLAM Family Receptor Signalling” (PLoS ONE, 2014)

Test system: NK92 cells
Assay: IFNγ production by NK92 cells
Format: cell-based, human
Details: TJW, unpublished

B1: PLCγ2: phospholipase C gamma-2 (protein)
chain: MSTTVNVDSLAEYEKSQIKRALELGTVMTVFSFRKSTPERRTVQVIMETRQVAWSKTADKIEGFLDIMEIKEIRPGKNSKDFERAKAVRQKEDCCFTILYGTQFVLSTLSLAADSKEDAVNWLSGLKILHQEAMNASTPTIIESWLRKQIYSVDQTRRNSISLRELKTILPLINFKVSSAKFLKDKFVEIGAHKDELSFEQFHLFYKKLMFEQQKSILDEFKKDSSVFILGNTDRPDASAVYLHDFQRFLIHEQQEHWAQDLNKVRERMTKFIDDTMRETAEPFLFVDEFLTYLFSRENSIWDEKYDAVDMQDMNNPLSHYWISSSHNTYLTGDQLRSESSPEAYIRCLRMGCRCIELDCWDGPDGKPVIYHGWTRTTKIKFDDVVQAIKDHAFVTSSFPVILSIEEHCSVEQQRHMAKAFKEVFGDLLLTKPTEASADQLPSPSQLREKIIIKHKKLGPRGDVDVNMEDKKDEHKQQGELYMWDSIDQKWTRHYCAIADAKLSFSDDIEQTMEEEVPQDIPPTELHFGEKWFHKKVEKRTSAEKLLQEYCMETGGKDGTFLVRESETFPNDYTLSFWRSGRVQHCRIRSTMEGGTLKYYLTDNLTFSSIYALIQHYRETHLRCAEFELRLTDPVPNPNPHESKPWYYDSLSRGEAEDMLMRIPRDGAFLIRKREGSDSYAITFRARGKVKHCRINRDGRHFVLGTSAYFESLVELVSYYEKHSLYRKMRLRYPVTPELLERYNMERDINSLYDVSRMYVDPSEINPSMPQRTVKALYDYKAKRSDELSFCRGALIHNVSKEPGGWWKGDYGTRIQQYFPSNYVEDISTADFEELEKQIIEDNPLGSLCRGILDLNTYNVVKAPQGKNQKSFVFILEPKQQGDPPVEFATDRVEELFEWFQSIREITWKIDTKENNMKYWEKNQSIAIELSDLVVYCKPTSKTKDNLENPDFREIRSFVETKADSIIRQKPVDLLKYNQKGLTRVYPKGQRVDSSNYDPFRLWLCGSQMVALNFQTADKYMQMNHALFSLNGRTGYVLQPESMRTEKYDPMPPESQRKILMTLTVKVLGARHLPKLGRSIACPFVEVEICGAEYDNNKFKTTVVNDNGLSPIWAPTQEKVTFEIYDPNLAFLRFVVYEEDMFSDPNFLAHATYPIKAVKSGFRSVPLKNGYSEDIELASLLVFCEMRPVLESEEELYSSCRQLRRRQEELNNQLFLYDTHQNLRNANRDALVKEFSVNENQLQLYQEKCNKRLREKRVSNSKFYS
  effect on IFNγ production by NK92 cells: activating
